Data on 1 molecule can be found in publication PMC10164551, “Structural basis of tRNAPro acceptor stem recognition by a bacterial trans-editing domain”.

The target of this data set is T1, ProXp-ala K50A (Caulobacter crescentus, UniProt Q9ABV9 1-168, K50A).
T1 sequence: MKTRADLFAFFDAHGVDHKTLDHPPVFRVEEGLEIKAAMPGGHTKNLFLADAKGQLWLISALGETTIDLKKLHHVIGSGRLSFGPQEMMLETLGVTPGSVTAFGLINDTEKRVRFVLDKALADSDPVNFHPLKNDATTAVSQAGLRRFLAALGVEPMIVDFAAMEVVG
The experiment in a line: AUC; 1 mM MgCl2; 9.6 μM protein reaches about 36% bound; EMSA: 81 nM duplex annealed in 50 mM sodium phosphate pH 7.5, 150 mM NaCl, 0-114 μM protein, 1 h room temp, 16% native gel in TBE; NMR: same phosphate buffer, 1. Conditions: protein: recombinant; tags: N-terminal His6 removed by thrombin; leaves Gly-Ser-His; hairpin; 7 bp stem, 3' ACCA single-stranded. (A gel shift assay detects complexes by their altered migration in electrophoresis.)

Consider CGGCGAGUUCGCUCGCCGACCA (structured_RNA) [microhelixPro], for which the binding signal was about 8 fold weaker than WT.
